In article PMC4454452 (The Biochemical journal, 2014) one finds Kd data, which are given here for one molecule.

For the test, the target named is CHD4 PHD2 finger (15N-labelled, GST tag cleaved) (uniformly 15N-labelled). Nature of the test: NMR titration.

Consider ARTKQTARKSTG [unmodified histone H3 peptide (amino acids 1-12 of histone H3), NMR experiments], for which binding was put at a Kd of 18 µM.
